From US20060218667A1 come the findings set out here.

In this test the target is porcine trypsin (porcine) (UniProt P00761). Nature of the test: cell-based or functional assay.
Sequence of UniProt P00761 (P00761 9-231 limits assumed): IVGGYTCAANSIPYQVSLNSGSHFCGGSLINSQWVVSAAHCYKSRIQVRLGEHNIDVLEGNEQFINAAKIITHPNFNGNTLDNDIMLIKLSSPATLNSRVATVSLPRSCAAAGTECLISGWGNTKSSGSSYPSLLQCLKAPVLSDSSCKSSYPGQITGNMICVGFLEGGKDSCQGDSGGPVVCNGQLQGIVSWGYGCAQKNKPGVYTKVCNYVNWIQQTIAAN
For the substance “r-Aprotinin-V (aprotinin variant with Met 52 replaced by valine)”, the KIU/mg Protein (specific activity) (KIU/mg protein) was determined as 7160.
To “r-Aprotinin-Q (aprotinin variant with Met 52 replaced by glutamine)” belongs 7220.
For “r-Aprotinin-L (aprotinin variant with Met 52 replaced by leucine)” the value was 7150.
